As usually defined, the pKd is the negative decadic logarithm of the Kd, by convention in mol/L. A low value points to a high Kd.

pKd: −log10 of the molar value.

Among the targets are FV712‐1478; FV712‐1481; FV712‐1484; FV712‐1487; FV712‐1490.
What all share (experiment): ELISA

For “Recombinant tissue factor pathway inhibitor alpha (TFPIα) (from UniProt P10646-1 29-304) (natural protein)”, the pKd with FV712‐1478 is 9.70; in the test with FV712‐1481 it was 9.70; in the test with FV712‐1484 it was 9.22; with FV712‐1487, 9.22; with FV712‐1490, 9.00.

The values are drawn from publication PMC9313797.
